Results as given in US20260167703A1.

How the values were obtained:
[1] = target: DENV-2 E protein Domain III (Dengue virus serotype 2, strain Thailand/16681/1984); assay: BLI, mAb on AR2G biosensor, 20 ug/mL Domain III, 1200 sec
[2] = target: DENV-4 E protein Domain III (Dengue virus serotype 4, strain Indonesia/1036/1976); assay: as above
[3] = target: DENV-2 VLP (Dengue virus serotype 2, strain Thailand/16681/84); assay: Luminex, VLP-coupled beads
[4] = target: Dengue Virus Serotype 2 envelope protein (Dengue virus serotype 2, strain Thailand/16681/84); assay: Luminex bead assay (antigen on MagPlex beads, MFI)

Substance	Response (nm) [1] [nm]	Response (nm) [2] [nm]	EC50 [3] [µg/mL]	EC50 (read off the curve) [4] [µg/mL]
3H5 (antibody)	0.488			
4G2 (antibody)	0.0174	0.056		
777-2 (DV2-3H5) (antibody)	0.303		0.0749	0.06
